Experimental data published in publication PMC11384727.

Target: PKM2 (pcDNA3.1(+)-PKM2, transfected) (human) (UniProt P14618)
Test: cross-linking

PKM2 (pcDNA3.1(+)-PKM2, transfected), P14618 1-531 (enzyme; other documents disagree on this pair), sequence (P14618 whole entry): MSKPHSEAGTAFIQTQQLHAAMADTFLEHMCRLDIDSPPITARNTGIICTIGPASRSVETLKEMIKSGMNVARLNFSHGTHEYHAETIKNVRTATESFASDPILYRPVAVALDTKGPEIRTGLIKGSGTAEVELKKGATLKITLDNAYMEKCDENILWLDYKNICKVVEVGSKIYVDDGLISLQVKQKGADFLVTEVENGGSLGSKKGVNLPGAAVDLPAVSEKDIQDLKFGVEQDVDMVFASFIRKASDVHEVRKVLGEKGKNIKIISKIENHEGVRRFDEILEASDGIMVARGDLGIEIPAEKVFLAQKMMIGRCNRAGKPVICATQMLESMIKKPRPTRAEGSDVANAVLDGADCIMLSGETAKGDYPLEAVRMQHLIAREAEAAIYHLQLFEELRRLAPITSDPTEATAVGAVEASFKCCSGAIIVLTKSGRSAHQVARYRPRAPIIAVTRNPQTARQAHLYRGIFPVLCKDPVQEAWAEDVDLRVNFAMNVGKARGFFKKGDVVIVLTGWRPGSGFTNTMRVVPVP

## PKM2 (pcDNA3.1(+)-PKM2, transfected), P14618 1-531 (enzyme; other documents disagree on this pair)
  stoichiometry N: 2
